Laboratory results from paper PMC8578620 (Nature Communications, 2021).

Biological target: CAP256.wk34.c80 SOSIP.RnS2 Env trimer containing the native N160 glycan site (HIV-1 clade C, CAP256.wk34.c80 …, stabilised)

B1: 2G12 (antibody, V domains shown)
VH: EVQLVESGGGLVKAGGSLILSCGVSNFRISAHTMNWVRRVPGGGLEWVASISTSSTYRDYADAVKGRFTVSRDDLEDFVYLQMHKMRVEDTAIYYCARKGSDRLSDNDPFDAWGPGTVVTVSP
VL: VVMTQSPSTLSASVGDTITITCRASQSIETWLAWYQQKPGKAPKLLIYKASTLKTGVPSRFSGSGSGTEFTLTISGLQFDDFATYHCQHYAGYSATFGQGTRVEIK
  binding result: binds
